Molecular target: 破伤风毒素 (Clostridium tetani, UniProt P04958 2-1315)
Sequence (P04958 2-457 limits assumed, chain 1 of 2): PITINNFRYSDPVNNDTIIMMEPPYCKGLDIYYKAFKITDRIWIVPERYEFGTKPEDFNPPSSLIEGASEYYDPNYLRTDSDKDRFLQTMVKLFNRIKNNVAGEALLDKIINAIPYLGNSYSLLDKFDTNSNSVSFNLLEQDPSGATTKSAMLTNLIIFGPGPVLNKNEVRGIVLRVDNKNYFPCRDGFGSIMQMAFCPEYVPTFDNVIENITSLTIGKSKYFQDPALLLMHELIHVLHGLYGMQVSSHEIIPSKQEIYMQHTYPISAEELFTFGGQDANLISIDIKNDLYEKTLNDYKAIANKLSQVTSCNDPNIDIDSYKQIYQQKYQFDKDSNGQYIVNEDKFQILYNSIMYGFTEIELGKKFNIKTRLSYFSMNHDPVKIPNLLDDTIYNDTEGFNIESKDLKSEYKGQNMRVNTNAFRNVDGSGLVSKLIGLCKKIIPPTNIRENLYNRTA
Sequence (P04958 458-1315 limits assumed, chain 2 of 2): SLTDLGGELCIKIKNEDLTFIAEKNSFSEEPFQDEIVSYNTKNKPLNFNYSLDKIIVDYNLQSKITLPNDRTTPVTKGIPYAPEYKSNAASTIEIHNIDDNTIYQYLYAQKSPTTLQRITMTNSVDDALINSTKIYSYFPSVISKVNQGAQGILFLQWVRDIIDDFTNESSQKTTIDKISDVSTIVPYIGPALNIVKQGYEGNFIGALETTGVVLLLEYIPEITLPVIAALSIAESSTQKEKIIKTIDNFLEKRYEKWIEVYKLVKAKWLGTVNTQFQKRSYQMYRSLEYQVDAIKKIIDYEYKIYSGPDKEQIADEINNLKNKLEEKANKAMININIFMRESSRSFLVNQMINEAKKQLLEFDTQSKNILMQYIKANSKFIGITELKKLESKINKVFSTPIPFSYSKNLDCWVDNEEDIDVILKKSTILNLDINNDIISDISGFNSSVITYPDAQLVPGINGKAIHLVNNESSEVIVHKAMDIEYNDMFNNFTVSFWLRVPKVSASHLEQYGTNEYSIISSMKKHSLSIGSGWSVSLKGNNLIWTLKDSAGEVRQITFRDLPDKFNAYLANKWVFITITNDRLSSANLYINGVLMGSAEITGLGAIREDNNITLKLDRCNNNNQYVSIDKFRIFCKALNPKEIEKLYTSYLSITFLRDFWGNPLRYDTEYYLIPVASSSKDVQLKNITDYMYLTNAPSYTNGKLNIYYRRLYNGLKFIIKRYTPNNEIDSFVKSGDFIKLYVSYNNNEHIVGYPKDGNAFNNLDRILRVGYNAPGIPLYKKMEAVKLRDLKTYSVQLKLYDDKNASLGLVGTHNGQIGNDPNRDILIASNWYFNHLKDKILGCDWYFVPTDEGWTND

B1: 抗体TRN1015 (antibody, V domains shown)
VH: EVQLVESGGGRVKPGGSLRLSCSVSGFGIGIYTMNWVRQAPGKGLEWVSSISGTSQYIYYANSVRGRFTISRDNAENSLYLQLNNLRAEDTALYYCVSGSSLDYWGQGTLVTISS
VL: DIQLTQSPSSLSASVGGRVTITCRASQNIGTNLNWFQQKPGTAPNLLIYGASTLQSGVPSRFSGSGSGTTFTLTIDSLQPEDFATYYCYQNYNSPKTFGQGTKVDLK
- koff: 9.4e-05 s⁻¹
- kon: 38800 M⁻¹ s⁻¹

From CN108623681A (ZHUHAI TAINUO MAIBO BIOTECHNOLOGY CO LTD; GUANGZHOU …, dated 2018)
